Series [1] in a line: Peroxidase activity with ABTS and H2O2. In kind it is biochemical. The following applies: for Peroxidase activity: 10 mM ABTS, 20 mM H2O2, pH 5.0, activities <0.2 not detectable (N.D.); for peroxidase activity relative to parents: ABTS. A digest of the protocol:
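Initial peroxidase rates from ABTS radical cation accumulation at 414 nm: 1 μM enzyme, 10 mM ABTS, 200 mM phosphate pH 5.0, room temperature, started with H2O2 to 20 mM. Monitored 5 min; rate from steepest part of time course using ε 36,000 […].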

The conditions of series [2]: Li et al. 2001; read-out: KM for 12-pNCA; cited from earlier work.
A short description of series [3]: Thermostability (loss of Soret band at increasing temperatures). In kind it is physicochemical. The following applies: cell extracts heated 10 minutes. The gist of the method:
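Cell extracts heated 10 minutes at a range of temperatures, cooled to 4° C and centrifuged to remove precipitate. Remaining P450 quantified by carbon monoxide reduced difference spectroscopy, following loss of the CO/Soret peak with temperature.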

A short description of series [4]: Peroxygenase activity on allyloxy-benzene (4-AAP assay). The following applies: 50 mM substrate. In kind it is biochemical. The protocol: (§1) The chimeras were assayed for hydroxylation of p-nitrophenoxydodecanoic acid (12-pNCA), a fatty acid analog that is hydroxylated by CYP102A1 and CYP102A2 to yield p-nitrophenolate (Schwaneberg et al., Anal Biochem 269,359-366 (1999)). […] When hydroxylation rates for the parent CYP102 enzymes were monitored using the maximum soluble concentrations of these substrates, activity could only be detected on 2-phenoxy-ethanol.
(§2) Rates on 2-phenoxy-ethanol and allyloxy-benzene were determined using 2 μM enzyme, 20 mM H2O2, 1% DMSO, and 1% acetone in 100 mM N-[2-hydroxyethyl]piperazine-N′-[3-propanesulfonic acid] (Epps) (pH 8.2) at room temperature. Substrate concentrations for 2-phenoxy-ethanol (100 mM) and allyloxy benzene (50 mM) maintained saturation. Reactions were initiated by the addition of H2O2 and quenched at appropriate times using an equal volume of a solution containing 4M urea and 100 mM NaOH. 120 μl of 0.6% 4-AAP was added, followed by mixing and addition of 120 μl of 0.6% potassium persulfate. Color was allowed to develop for 20 minutes before absorbance was read at 500 nm. Rates were determined from the linear region of the time course. The major products were determined by GC/MS to be the hemiacetal, which decomposes to phenol. The extinction coefficient for the 4-AAP/phenol complex was determined to be 4,800 M^−1cm^−1. The results can be seen in FIG. 4.

Series [5] in a line: Peroxygenase substrate activity profile. The format is biochemical. The following applies: 20 mM H2O2. A digest of the protocol: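 Peroxygenase rates were measured with H2O2 (20 mM) at room temperature and pH 8.2. For 12-pNCA (250 μM), 1 μM enzyme in Tris buffer was used, with initial p-nitrophenolate formation read at 410 nm over the first 6 s. For 2-phenoxy-ethanol (100 mM) and allyloxy-benzene (50 mM), 2 μM enzyme in EPPS buffer was used, reactions were quenched, phenol was detected by 4-AAP at 500 nm, and rates are in nmol product/nmol P450/min.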

Series [6] is described as follows: Peroxygenase activity on 2-phenoxy-ethanol (4-AAP assay). The format is biochemical. The following applies: 100 mM substrate. As to the method:
as §1, §2

Series [7] is described as follows: Peroxygenase activity, hydroxylation of 12-pNCA. In kind it is biochemical. The following applies: 250 μM 12-pNCA. The protocol: as §1
This Example provides one method by which peroxygenase activity of a P450 enzyme may be characterized. First order rates for p-nitrophenolate accumulation were determined using 1 μM enzyme, 20 mM H2O2, 250 μM 12-pNCA and 0.5% dimethyl sulfoxide (DMSO) in 100 mM Tris-HCl (pH 8.2) at room temperature. Enzyme, substrate, buffer and DMSO were combined in a cuvette and zeroed at 410 nm. Reaction mixtures were incubated for 4 minutes and initiated by the addition of H2O2 to a final concentration of 20 mM. Initial rates were determined by monitoring the accumulation of p-nitrophenolate at 410 nm, and data from the first six seconds were used to determine initial rates. […] The extinction coefficient of p-nitrophenolate is 13,200 M^−1cm^−1 (Schwaneberg et al., Anal Biochem 269:359-366 (1999)).

A short description of series [8]: Library plate screen, activity on 12-pNCA. The following applies: seven-crossover library, cell lysate. The format is biochemical. As to the method:
These library plates were replicated and grown in 96 deep-well plates in 900 μL of LB media with 100 μg/ml ampicillin overnight at 30° C. and 250 rpm. 150 μL of this was then transferred to 850 μL of induction media (TB-media with final concentrations of 100 μg/ml ampicillin, 25 μg/ml thiamine, 0.5 mM δ-aminolevulinic acid and 0.6 mM IPTG). These were grown for 20-24 hours at 25° C. and 190 rpm, harvested by centrifugation at 5000×g for 8 minutes and frozen at −20° C. for at least 24 hours. Cells were resuspended using a pipetting robot (Multimek 96, Beckman) and lysed in 400 μL of Epps or Tris buffer (100 mM, pH 8.2) containing 0.8 mg/ml lysozyme and 2 units/mL DNaseI for 1 hour at 37° C. Plates were then spun for 8 minutes at 5000×g and 4° C. to pellet cell debris. 80 μL of lysate was transferred into 4 separate 96 well plates for each library plate. […] On one plate, high -throughput carbon monoxide spectroscopy was done in order to assess relative amounts of P450 (Otey, C. R. High-throughput carbon monoxide binding assay for cytochromes P450. In Directed Enzyme Evolution: Screening and Selection Methods, F. H. Arnold and G. Georgiou, eds. (Totowa, N.J.: Humana Press) pp. 137-139 (2003)) with 0.1 M sodium hydrosulfite being used in place of 0.4 M. The other three plates were used to assay activity on different substrates. […]

“Also recorded” adds a separate entry of the source.

B1: CYP102A1: parent P450 heme domain from Bacillus megaterium, with the F87A mutation (protein, listed as Bacillus megaterium)
chain: TIKEMPQPKTFGELKNLPLLNTDKPVQALMKIADELGEIFKFEAPGRVTRYLSSQRLIKEACDESRFDKNLSQALKFVRDFAGDGLATSWTHEKNWKKAHNILLPSFSQQAMKGYHAMMVDIAVQLVQKWERLNADEHIEVPEDMTRLTLDTIGLCGFNYRFNSFYRDQPHPFITSMVRALDEAMNKLQRANPDDPAYDENKRQFQEDIKVMNDLVDKIIADRKASGEQSDDLLTHMLNGKDPETGEPLDDENIRYQIITFLIAGHETTSGLLSFALYFLVKNPHVLQKAAEEAARVLVDPVPSYKQVKQLKYVGMVLNEALRLWPTAPAFSLYAKEDTVLGGEYPLEKGDELMVLIPQLHRDKTIWGDDVEEFRPERFENPSAIPQHAFKPFGNGQRACIGQQFALHEATLVLGMMLKHFDFEDHTNYELDIKETLTLKPEGFVVKAKSKKIPLGGIPSPST
A word on the Km: it is the concentration of substrate that gives half-maximal velocity. Consider B1, for which, in series [1], the Peroxidase activity was 2.6 nmol product/nmol P450/min and the “peroxidase activity relative to parents” value is given as “low, but detectable peroxidase activity”. In series [2], the Km was 8.1 µM. The Tm in series [3] worked out at 55 °C.

B2: Chimera 43-135: CYP102A1 heme domain with residues 43-135 from CYP102A2 (protein)
chain: TIKEMPQPKTFGELKNLPLLNTDKPVQALMKIADELGEIFKFHTPAGTTIVVSGHELVKEVCDEERFDKSIEGALEKVRAFSGDGLATSWTHEPNWRKAHNILMPTFSQRAMKDYHEKMVDIAVQLIQKWARLNPDEHIEVPEDMTRLTLDTIGLCGFNYRFNSFYRDQPHPFITSMVRALDEAMNKLQRANPDDPAYDENKRQFQEDIKVMNDLVDKIIADRKASGEQSDDLLTHMLNGKDPETGEPLDDENIRYQIITFLIAGHETTSGLLSFALYFLVKNPHVLQKAAEEAARVLVDPVPSYKQVKQLKYVGMVLNEALRLWPTAPAFSLYAKEDTVLGGEYPLEKGDELMVLIPQLHRDKTIWGDDVEEFRPERFENPSAIPQHAFKPFGNGQRACIGQQFALHEATLVLGMMLKHFDFEDHTNYELDIKETLTLKPEGFVVKAKSKKIPLGGIPSPST
modifications: Chimeric Cytochrome P450 heme group sequence from Bacillus megaterium and Bacillus subtilis
notes: CYP102A1 heme domain with residues 43-135 from CYP102A2
Regarding B2, the “peroxygenase activity on allyloxy-benzene” value in series [4] is listed as “highest rates; also recorded: detectable activity”. The Peroxidase activity in series [1] is 6.8 nmol product/nmol P450/min. Besides, the “substrate activity profile relative to parents” value in series [5] is reported as “new activity; also recorded: gained novel activity”. The “peroxygenase activity on 2-phenoxy-ethanol” value in series [6] is on record as “detectable activity”. The Tm in series [3] turned out to be 53 °C. In series [7], the “peroxygenase activity on 12-pNCA” value was “not”.

B3: Chimera 191-335: CYP102A1 heme domain with residues 191-335 from CYP102A2 (protein)
chain: TIKEMPQPKTFGELKNLPLLNTDKPVQALMKIADELGEIFKFEAPGRVTRYLSSQRLIKEACDESRFDKNLSQALKFVRDFAGDGLATSWTHEKNWKKAHNILLPSFSQQAMKGYHAMMVDIAVQLVQKWERLNADEHIEVPEDMTRLTLDTIGLCGFNYRFNSFYRDQPHPFITSMVRALDEAMNKLQRLDVQDKLMVRTKRQFRYDIQTMFSLVDSIIAERRANGDQDEKDLLARMLNVEDPETGEKLDDENIRFQIITFLIAGHETTSGLLSFATYFLLKHPDKLKKAYEEVDRVLTDAAPTYKQVLELTYIRMILNESLRLWPTAPAFSLYPKEDTVLGGEYPLEKGDELMVLIPQLHRDKTIWGDDVEEFRPERFENPSAIPQHAFKPFGNGQRACIGQQFALHEATLVLGMMLKHFDFEDHTNYELDIKETLTLKPEGFVVKAKSKKIPLGGIPSPST
modifications: Chimeric Cytochrome P450 heme group sequence from Bacillus megaterium and Bacillus subtilis
notes: CYP102A1 heme domain with residues 191-335 from CYP102A2
For the molecule B3, the “peroxygenase activity on allyloxy-benzene” value in series [4] is listed as “detectable activity”. Further, the “peroxidase activity relative to parents” value in series [1] is listed as “no detectable peroxidase activity”. In series [5], the “substrate activity profile relative to parents” value is “new activity; also recorded: gained novel activity”. The “peroxygenase activity on 2-phenoxy-ethanol” value in series [6] was “detectable activity”. Besides, the Tm in series [3] came to 40 °C. Besides, the “peroxygenase activity on 12-pNCA” value in series [7] was “not”.

B4: Chimera F3791: chimera of the CYP102A1/A2/A3 seven-crossover library (protein)
chain: KETSPIPQPKTFGPLGNLPLIDKDKPTLSLIKLAEEQGPIFQIHTPAGTTIVVSGHELVKEVCDESRFDKNLSQALKFVRDFAGDGLATSWTHEKNWKKAHNILLPSFSQQAMKGYHAMMVDIAVQLIQKWARLNPNEAVDVPGDMTRLTLDTIGLCGFNYRFNSYYRDSQHPFITSMLRALKEAMNQSKRLGLQDKMMVKTKLQFQKDIEVMNSLVDKIIADRKASGEQSDDLLTHMLNGKDPETGEPLDDENIRYQIITFLIAGHETTSGLLSFATYFLLKHPDKLKKAYEEVDRVLTDAAPTYKQVLELTYIRMILNESLRLWPTAPAFSLYAKEDTVLGGEYPISKGQPVTVLIPKLHRDQNAWGPDAEDFRPERFEDPSSIPHHAYKPFGNGQRACIGMQFALQEATMVLGLVLKHFELINHTGYELKIKEALTIKPDDFKITVKPRKTAAINVQRKEQA
modifications: Chimeric Cytochrome P450 heme group polypeptide sequence from CYP102A1 (Bacillus megaterium); CYP102A2 (Bacillus subtilis) and CYP102A3 (Bacillus subtilis)
notes: chimera of the CYP102A1/A2/A3 seven-crossover library
Take B4: the “activity for 12-pNCA compared to parent P450s” value in series [8] is “superior activity”.

The values above are taken from patent US8603949B2, “Libraries of optimized cytochrome P450 enzymes and the optimized P450 enzymes” (California Institute of Technology, priority 2003, dated 2013).
